{"source": "paper PMC4435181", "origin": "cited, not measured here", "molecular_target": "HER2 ECD (Homo sapiens) (UniProt P04626)", "experiment": "ELISA", "data": [{"substance": "trastuzumab", "values": [{"measurement": "Kd", "value": 0.1, "unit": "nM"}]}]}
